In paper PMC9504981 one finds stoichiometry N data, which are given here for one substance.

The assay addresses 10×Histidine-tagged amino acids 1-416 of potato virus X RNA-dependent RNA polymerase, 10×His-MET_(1-416) (potato virus X). Description: cross-linking.

Some results are limits rather than exact numbers.

One may read the stoichiometry N as the number of molecules, sites or subunits per partner or assembly. As for “10×Histidine-tagged amino acids 1-416 of potato virus X RNA-dependent RNA polymerase, 10×His-MET_(1-416) (domain or fragment)”, the stoichiometry N was > 5.
